Reference: patent publication US20220002344A1 (CENTRE NATIONAL DE LA RECHERCHE SCIENTIFIQUE, published 2022)
Square brackets hold non-standard residues; d marks the D form. Ends that are not written are not given here. * marks the point of attachment. FITC = O=C1OC2(c3ccc(O)cc3Oc3cc(O)ccc32)c2ccc(NC(=S)*)cc21; Cha = N[C@@H](CC1CCCCC1)C(=O)O

B1: P30 (Onc112-P7), VDKPPYLPRPRPPRrIYNrNGPRQChaDLF-OH (peptide)
peptide: VDKPPYLPRPRPPR[dR]IYN[dR]NGPRQ[Cha]DLF-OH
notes: Fusion of Onc112 and P7; the printed Mw 3472.08 agrees with that N; also called CA3-30; Onc-P7
B2: P116 (Py-P7), …haDLF-OH (peptide)
peptide: VDKGSYLPRPTPPRPIYNRNGPRQ[Cha]DLF-OH
modifications: N-terminus assumed
SMILES: CC[C@H](C)[C@H](NC(=O)[C@@H]1CCCN1C(=O)[C@H](CCCNC(=N)N)NC(=O)[C@@H]1CCCN1C(=O)[C@@H]1CCCN1C(=O)[C@@H](NC(=O)[C@@H]1CCCN1C(=O)[C@H](CCCNC(=N)N)NC(=O)[C@@H]1CCCN1C(=O)[C@H](CC(C)C)NC(=O)[C@H](Cc1ccc(O)cc1)NC(=O)[C@H](CO)NC(=O)CNC(=O)[C@H](CCCCN)NC(=O)[C@H](CC(=O)O)NC(=O)[C@@H](N)C(C)C)[C@@H](C)O)C(=O)N[C@@H](Cc1ccc(O)cc1)C(=O)N[C@@H](CC(N)=O)C(=O)N[C@@H](CCCNC(=N)N)C(=O)N[C@@H](CC(N)=O)C(=O)NCC(=O)N1CCC[C@H]1C(=O)N[C@@H](CCCNC(=N)N)C(=O)N[C@@H](CCC(N)=O)C(=O)N[C@@H](CC1CCCCC1)C(=O)N[C@@H](CC(=O)O)C(=O)N[C@@H](CC(C)C)C(=O)N[C@@H](Cc1ccccc1)C(=O)O
notes: Fusion of pyrrhocoricin, GPR linker and P7
B3: P120 (Onc112-P7Scr), VDKPPYLPRPRPPRrIYNrNGPRChaFQLD-OH (peptide)
peptide: VDKPPYLPRPRPPR[dR]IYN[dR]NGPR[Cha]FQLD-OH
notes: Control fusion peptide with scrambled P7; also called Onc112-Scr
B4: Py (Pyrrhocoricin), VDKGSYLPRPTPPRPIYNRN-NH2 (peptide)
peptide: VDKGSYLPRPTPPRPIYNRN-NH2
notes: Bought from Novopro; also called unglycosylated pyrrhocoricin
B5: CM1-76 (P7-Onc112), AcQChaDLF-GPR-Onc112-NH2 (peptide)
peptide: Ac-Q[Cha]DLFGPRVDKPPYLPRPRPPR[dR]IYN[dR]-NH2
SMILES: CC[C@H](C)[C@H](NC(=O)[C@@H](CCCNC(=N)N)NC(=O)[C@H](CCCNC(=N)N)NC(=O)[C@@H]1CCCN1C(=O)[C@@H]1CCCN1C(=O)[C@H](CCCNC(=N)N)NC(=O)[C@@H]1CCCN1C(=O)[C@H](CCCNC(=N)N)NC(=O)[C@@H]1CCCN1C(=O)[C@H](CC(C)C)NC(=O)[C@H](Cc1ccc(O)cc1)NC(=O)[C@@H]1CCCN1C(=O)[C@@H]1CCCN1C(=O)[C@H](CCCCN)NC(=O)[C@H](CC(=O)O)NC(=O)[C@@H](NC(=O)[C@H](CCCNC(=N)N)NC(=O)[C@@H]1CCCN1C(=O)CNC(=O)[C@H](Cc1ccccc1)NC(=O)[C@H](CC(C)C)NC(=O)[C@H](CC(=O)O)NC(=O)[C@H](CC1CCCCC1)NC(=O)[C@H](CCC(N)=O)NC(C)=O)C(C)C)C(=O)N[C@@H](Cc1ccc(O)cc1)C(=O)N[C@@H](CC(N)=O)C(=O)N[C@H](CCCNC(=N)N)C(N)=O
B6: P7 (Ac-QChaDLF-OH) (peptide)
peptide: Ac-Q[Cha]DLF-OH
SMILES: CC(=O)N[C@@H](CCC(N)=O)C(=O)N[C@@H](CC1CCCCC1)C(=O)N[C@@H](CC(=O)O)C(=O)N[C@@H](CC(C)C)C(=O)N[C@@H](Cc1ccccc1)C(=O)O
notes: also called CA2 68; AcQXDLF

Tests used:
[1] = target: T1, E. coli sliding clamp (DnaN protein, β subunit of DNA polymerase III) (E. coli, UniProt P0A988 1-366); assay: ITC, 25 °C, E. coli SC (beta ring)
T1 construct: Recombinant DnaN for ITC (a tag from pET15b is implied by the Ni-NTA step but not described); also called ^EcSC; SC
T1 sequence (P0A988 whole entry): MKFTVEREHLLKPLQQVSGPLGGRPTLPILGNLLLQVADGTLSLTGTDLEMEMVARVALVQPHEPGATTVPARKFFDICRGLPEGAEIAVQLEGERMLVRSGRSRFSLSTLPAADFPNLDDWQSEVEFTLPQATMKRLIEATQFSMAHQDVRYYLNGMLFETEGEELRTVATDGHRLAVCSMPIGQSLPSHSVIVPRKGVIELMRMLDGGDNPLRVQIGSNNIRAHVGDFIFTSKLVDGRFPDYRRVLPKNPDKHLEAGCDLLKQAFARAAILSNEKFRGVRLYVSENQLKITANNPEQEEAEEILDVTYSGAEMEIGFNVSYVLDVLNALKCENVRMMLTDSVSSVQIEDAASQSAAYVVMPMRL

[2] = target: T2, E. coli 70S ribosome particle (E. coli); assay: ITC, 30 °C, peptide titrated into E. coli 70S ribosome
T2 construct: also called ^Ec70S

[3] = target: T1, E. coli sliding clamp (DnaN protein, β …); assay: ITC, 30 °C, peptide titrated into E. coli SC
[4] = target: T2, E. coli 70S ribosome particle; assay: ITC, 30 °C, against the same peptide on E. coli SC
[5] = target: T2, E. coli 70S ribosome particle; assay: ITC, 30 °C, peptide titrated into E. coli 70S ribosome; values not well defined (footnote *)
[6] = target: T1, E. coli sliding clamp (DnaN protein, β …); assay: ITC, 30 °C
[7] = target: T2, E. coli 70S ribosome particle; assay: ITC, E. coli ribosome (70S)
[8] = target: T2, E. coli 70S ribosome particle; assay: ITC, 30 °C as the table's head says, E. coli ribosome
[9] = target: T2, E. coli 70S ribosome particle; assay: ITC, 30 °C, against Py on the 70S ribosome
[10] = target: T3, Human PCNA (Proliferating Cell Nuclear Antigen) (Human, UniProt P12004 1-261); assay: ITC, 30 °C
T3 construct: Source and limits of the construct are not described
T3 sequence (P12004 whole entry): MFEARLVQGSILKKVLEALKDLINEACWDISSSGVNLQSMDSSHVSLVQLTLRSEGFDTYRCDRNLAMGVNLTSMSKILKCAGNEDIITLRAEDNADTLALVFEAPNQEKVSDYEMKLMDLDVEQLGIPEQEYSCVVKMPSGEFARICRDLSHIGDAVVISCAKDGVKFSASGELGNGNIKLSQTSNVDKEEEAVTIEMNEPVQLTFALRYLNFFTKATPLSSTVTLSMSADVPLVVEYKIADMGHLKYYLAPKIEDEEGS

[11] = target: T1, E. coli sliding clamp (DnaN protein, β …); assay: ITC, 30 °C, E. coli SC

Row | Binder | Kd [1] | n [1] | ΔG [1] | ΔH [1] | -TΔS [2] | Kd [2] | ΔG [2] | ΔH [2] | -TΔS [3] | Kd [3] | ΔG [3] | ΔH [3] | -TΔS [5] | ΔG [5] | ΔH [5] | binding result [6] | also measured
1 | B1 | 180 nM | 0.9 | -9.2 kcal/mol | -14.6 kcal/mol | 15.7 kcal/mol | 70.4 nM | -9.92 kcal/mol | -25.6 kcal/mol | 4.2 kcal/mol | 205 nM | -9.28 kcal/mol | -13.5 kcal/mol |  |  |  |  | fold higher affinity for the ribosome than for SC [4]: 3 fold
2 | {FITC}-KVDKGSYLPRPTPPRPIYNRNGPRQ[Cha]DLF-OH (also called FITC-K-Py-P7; CA2-150) [P150 (FITC-Py-P7), FITC-…haDLF-OH] |  |  |  |  |  |  |  |  | 8.21 kcal/mol | 390 nM | -8.99 kcal/mol | -17.2 kcal/mol | 6.7 kcal/mol | -6.27 kcal/mol | -13 kcal/mol |  | 
3 | {FITC}-KVDKGSYLPRPTPPRPIYNRNGPR[Cha]FQLD-OH (also called FITC-K-Py-P7Scr; CA4-72) [P72 (FITC-Py-P7Scr), FITC-…haFQLD-OH] |  |  |  |  |  |  |  |  |  |  |  |  | 2.94 kcal/mol | -5.98 kcal/mol | -8.92 kcal/mol | no binding | 
4 | VDKPPYLPRPRPPR[dR]IYN[dR]-NH2 (also called CA3 28; CA3-28) [P28 (Onc112), VDKPPYLPRPRPPRrIYNr-NH2] |  |  |  |  | 14 kcal/mol | 84 nM | -9.82 kcal/mol | -23.9 kcal/mol |  |  |  |  |  |  |  | no binding | Kd [7]: 241 nM; n [7]: 1; ΔG [7]: -9.2 kcal/mol; ΔH [7]: -16.2 kcal/mol; Kd [8]: 241 nM; ΔG [8]: -9.2 kcal/mol; ΔH [8]: -16.2 kcal/mol; fold lower affinity than Py [9]: 5 fold
5 | B2 |  |  |  |  | 12 kcal/mol | 37 nM | -10.3 kcal/mol | -22.3 kcal/mol | 4.3 kcal/mol | 119 nM | -9.61 kcal/mol | -13.9 kcal/mol |  |  |  |  | fold higher affinity for the ribosome than for SC [4]: 3 fold
6 | {FITC}-KVDKGSYLPRPTPPRPIYNRN-NH2 (ends and bridges not checked, also called FITC-K-Py; FITC-K-Pyr) [P122 (FITC-Py), FITC-KVDKGSYLPRPTPPRPIYNRN-NH2] |  |  |  |  |  |  |  |  |  |  |  |  | 13.3 kcal/mol | -6.91 kcal/mol | -20.1 kcal/mol | no binding | 
7 | B3 |  |  |  |  | 3.12 kcal/mol | 101 nM | -9.85 kcal/mol | -13 kcal/mol |  |  |  |  |  |  |  | no binding | 
8 | B4 |  |  |  |  | 8.23 kcal/mol | 15.5 nM | -10.9 kcal/mol | -19.2 kcal/mol |  |  |  |  |  |  |  | no binding | 
9 | B5 | 258 nM | 1 | -9 kcal/mol | -10.7 kcal/mol |  |  |  |  |  |  |  |  |  |  |  |  | 
10 | B6 | 170 nM | 0.9 | -9.2 kcal/mol | -15.4 kcal/mol |  |  |  |  | 4.71 kcal/mol | 332 nM | -9 kcal/mol | -13.7 kcal/mol |  |  |  |  | binding result [10]: no binding; Kd [11]: 408 nM; n [11]: 1; ΔH [11]: -12.1 kcal/mol
